From paper PMC4728560 (Scientific Reports, 2016) come the findings set out here.

Entries after “also recorded” stand apart in the source; their conditions may differ.

The target of experiment [1] is T1, Bcl-xL (Homo sapiens, UniProt Q07817, DEL27-82).
T1 construct: one containing the fragment 1-26, and the other the fragment 81-209; 6His (N, cleaved yes); made in house; host or cells: Escherichia coli BL21 (DE3) pRARE2
As to the kind of experiment: Heterocomplex formation with Bcl-xL (native MS, SEC-MALS, gel filtration). The format is binding. Conditions: native MS: Bcl-xL(Δ27-81ΔCT), equimolar 100 μM, 30 °C, checked at 5 μM (for TCTP-R21A). As to the method: When not specified, proteins tested for binding experiments were mixed at 100 μM, dialyzed against 10 mM CHES pH 9, 50 mM NaCl, 1 mM DTT or TCEP, depending on the analysis, and heated overnight at 30 °C.
For binding experiments, 100 to 200PL of protein mixture were loaded on a size exclusion chromatography (S200, GE Healthcare) column, while elution profiles were measured by UV absorption at 280 nm.
SEC-MALS experiments were performed on a multi-angle light scattering detector (miniDAWN TREOS, Wyatt Technologies) coupled in-line with SEC and an interferometric refractometer (Optilab T-rEX, Wyatt Technologies). See Supplementary Information for full details.
Prior to any mass spectrometry experiment, protein buffer was exchanged twice against a 50 mM ammonium acetate (NH4Ac) solution at pH 9.0 using microcentrifuge gel filtration columns (Zeba 0.5 ml, Thermo Scientific, Rockford, IL). Protein concentration was determined spectrophotometrically. […]
Supplementary Table 1. Measured molecular weights in denaturing conditions Sample Theoretical molecular Measured molecular Associated mass (Da) mass (Da) species […]
Gel filtration. For binding experiments, 100 to 200PL of protein mixture were loaded on a size exclusion chromatography (S200, GE Healthcare) column, while elution profiles were measured by UV absorption at 280nm. […]
For orientation: In gel filtration, larger molecules generally elute earlier.

The subject of experiment [2] is Bcl-xL. As to the kind of experiment: In cellulo BRET between Luciferase-fused TCTP and YFP-fused Bcl-xL. It counts as cell-based. Conditions: MCF-7 cells; donor Luciferase-fused TCTP, acceptor YFP-fused Bcl-xL. An excerpt:
See Supplementary Information for full details.
Twenty-four hours later, cells
Protein expression and purification
For orientation: In BRET a luciferase serves as donor, and the signal depends on an acceptor being close.

The subject of experiment [3] is Bcl-xL inhibition of cBid/Bax. As to the kind of experiment: In vitro reconstitution liposome permeabilization, cBid/Bax with Bcl-xL. It counts as biochemical. To be noted: ANTS/DPX liposomes, 100 nM Bax, 20 nM cBid, pre-incubation pH 9, 45 min, 37 °C, 5 h, pH 7. An excerpt: (§1) This purified assay system measures direct interactions in which full-length untagged Bcl-xL inhibits permeabilization by binding full-length caspase 8 cleaved Bid (cBid) and/or full-length untagged Bax, thereby preventing Bax oligomerization in membranes. […] In these assays liposome permeabilization by activated Bax releases the entrapped fluorophore/quencher pair 8-aminonaphthalene-1,3,6-trisulfonic acid (ANTS)/p-xylene-bispyridinium (DPX), resulting in a measurable increase of fluorescence.
(§2) (A–E) in vitro reconstitution assay on liposome permeabilization. […] The treated Bcl-xL was then added to reactions containing ANTS-DPX liposomes, 100 nM Bax and 20 nM of either cBid (A,B) or cBidmt1(C,D) at pH 7. Liposome permeabilization was quantified by fluorescence after 5h incubation at 37 °C where 100% release was defined as the fluorescence change due to lipid solubilization with 1% Triton X-100. […] Error bars, std. dev. n = 3. […] Cyto c extra-mito: in the supernatant, analysed by Western blot. […]
(§3) Figure 10 A,B) or cBid mt1 (Supplementary Figure 10 C,D) at pH 7 to quantify the activity of Bcl-xL inhibition of liposome permeablization. […]
(§4) then added to reactions containing ANTS-DPX liposomes, 100nM Bax and 20nM of either c Bid (A, C) or cBid mt1(B, D) at pH 7 and liposome permeabilization was quantified by fluorescence […]

Experiment [4] concerns Bcl-xL inhibition of cBidmt1/Bax. As to the kind of experiment: In vitro reconstitution liposome permeabilization, cBidmt1/Bax with Bcl-xL. The format is biochemical. Conditions: ANTS/DPX liposomes, 100 nM Bax, 20 nM cBidmt1, pre-incubation pH 9, 45 min, 37 °C, 5 h, pH 7.
Source text: as §1, §2, §3, §4

Experiment [5] deals with Bax mediated cytochrome c release, Bcl-xL. As to the kind of experiment: Cytochrome c release from purified mitochondria by tBid and Bax in the presence of Bcl-xL. The format is biochemical. Conditions: mouse liver mitochondria; 5 nM tBid, 50 nM Bax, 300 nM Bcl-xL; 15 min, 30 °C; Western blot. Here is the method: as §2, with “3. To compare between the TCTP treated groups and the Control group statistically, two-way ANOVA test was performed for (A–D) and one-way ANOVA test was performed for (E). […] Colored asterisks above each data point indicate the statistical significance (*p < 0.05; **p < 0.01, no asterisks if p ≥ 0.05). A complete statistical analysis is provided in Supplementary Table 2–4.” for “3.”
to highlight the pre-incubation), pH 9, 30 C° before being added to the mitochondria at their final concentrations. […] Cytochrome c was detected in the mitochondrial fraction (Cyto c intra-mito) or in the supernatant (Cyto c extra-mito) by Western blot analysis. […]
Cytochrome c release assay. […] Mitochondrial pellets and the corresponding supernatant fractions were subjected to SDS-polyacrylamide gel electrophoresis and analyzed by Western blotting for cytochrome c.
For orientation: A western blot detects proteins with antibodies after separation by electrophoresis.

T1 sequence (Q07817 with tags, fused parts or gaps DEL27-82): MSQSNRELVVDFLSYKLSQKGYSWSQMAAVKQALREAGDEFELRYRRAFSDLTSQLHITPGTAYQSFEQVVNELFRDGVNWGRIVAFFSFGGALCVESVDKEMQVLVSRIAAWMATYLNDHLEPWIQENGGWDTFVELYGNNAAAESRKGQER

B1: TCTP R21A: full-length TCTP protein bearing the mutation R21A (protein)
chain: MIIYRDLISHDEMFSDIYKIAEIADGLCLEVEGKMVSRTEGNIDDSLIGGNASAEGPEGEGTESTVITGVDIVMNHHLQETSFTKEAYKKYIKDYMKSIKGKLEEQRPERVKPFMTGAAEQIKHILANFKNYQFFIGENMNPDGMVALLDYREDGVTPYMIFFKDGLEMEKC
B1: the “complex formation with Bcl-xL” value with Bcl-xL [1] is reported as “no peak; also recorded: no complex formation”. Besides, the “BRET signals with Bcl-xL” value in the experiment on Bcl-xL [2] was “lack of binding”. In experiment [3], the “effect on Bcl-xL inhibition of cBid/Bax-mediated liposome permeabilization” value is given as “no effect on Bcl-xL activity”. Also, the “effect on Bcl-xL inhibition of cBidmt1/Bax-mediated liposome permeabilization” value in experiment [4] is given as “no effect on Bcl-xL activity”. Further, the “potentiation of Bcl-xL (cytochrome c release)” value in experiment [5] was “do not potentiate Bcl-xL”.
